Experiment [1] deals with Non-glycosylated recombinant human GM-CSF expressed in E. coli (human) (UniProt P04141). The experiment in a line: ELISA on GM-CSF-coated wells, non-glycosylated GM-CSF, exp 2. On the technique in general: ELISA stands for enzyme-linked immunosorbent assay.
For experiment [2] the target is unchanged. The experiment can be described thus: cell-based or functional assay.
Experiment [3] shares this target. The experiment can be described thus: ELISA on GM-CSF-coated wells, non-glycosylated GM-CSF, exp 1.
The target in experiment [4] is Glycosylated recombinant human GM-CSF expressed from human 293 cells (human) (UniProt P04141). The experiment in a line: ELISA on GM-CSF-coated wells, glycosylated GM-CSF, exp 1.
Experiment [5] shares this target. The experiment can be described thus: SPR (Biacore 3000) at 37 °C, antibody captured on anti-human F(ab')2, GM-CSF as analyte, 1:1 global fit. (In general: Surface plasmon resonance follows binding to a sensor surface in real time, without labels.)

These results are taken from US20150344565A1.

In general, pEC50 refers to the EC50 on a negative log10 scale, so that one unit is a factor of ten. For orientation: pKd means −log10 of the Kd, conventionally taken in molar units. Usually koff stands for the rate constant with which the complex falls apart. As a reminder, the kon is the rate constant with which the complex forms.

pEC50, pKd: −log10 of the molar value. Values joined by “and” are separate entries in the source; they are usually repeats but may differ in a detail not shown here. Equal entries are not always repeated.

As for “Ab2, chimeric IgG1k antibody having variable regions from the mouse antibody LMM102”, the results for the negative logarithm of the EC50 (pEC50) in experiment [1], in experiment [3] and in experiment [4] were 9.36, 9.40 and 9.41, respectively. The IC50 for inhibition of GM-CSF induced IL-8 expression (U937 cells), experiment C in experiment [2] was 2.2 nM and 343 ng/ml. Besides, the pKd in experiment [5] is 10.52. Moreover, the koff in experiment [5] turned out to be 2.2e-05 s⁻¹. For the same substance, the kon in experiment [5] amounted to 720000 M⁻¹ s⁻¹.
